Source: paper PMC4986862

Molecular target: BD–PTLΔC1 (PETAL LOSS with the C-terminal activation region removed, fused to the GAL4 binding domain) (Arabidopsis thaliana)
Experiment: two-hybrid; quantitative: α-galactosidase activity of the MEL1 reporter in liquid cultures, triplicate technical assays; BD–PTLΔC1 bait

B1: AD–AKIN11 (full-length AKIN11 fused to the GAL4 activation domain) (natural protein)
chain: MDHSSNRFGNNGVESILPNYKLGKTLGIGSFGKVKIAEHVVTGHKVAIKILNRRKIKNMEMEEKVRREIKILRLFMHPHIIRQYEVIETTSDIYVVMEYVKSGELFDYIVEKGRLQEDEARNFFQQIISGVEYCHRNMVVHRDLKPENLLLDSRCNIKIADFGLSNVMRDGHFLKTSCGSPNYAAPEVISGKLYAGPEVDVWSCGVILYALLCGTLPFDDENIPNLFKKIKGGIYTLPSHLSSEARDLIPRMLIVDPVKRITIPEIRQHRWFQTHLPRYLAVSPPDTVEQAKKINEEIVQEVVNMGFDRNQVLESLRNRTQNDATVTYYLLLDNRFRVPSGYLESEFQETTDSGSNPMRTPEAGASPVGHWIPAHVDHYGLGARSQVPVDRKWALGLQSHAHPREIMNEVLKALQELNVCWKKIGHYNMKCRWVPGLADGQNTMVNNQLHFRDESSIIEDDCAMTSPTVIKFELQLYKAREEKYLLDIQRVNGPQFLFLDLCAAFLTELRVI
fold lower reporter (α-galactosidase) activation than AD–AKIN10: > 10 fold
